Data: patent US20150246949A1, “Desmoglein 2 (DSG2) Binding Proteins and Uses Therefor” (UNIVERSITY OF WASHINGTON THROUGH ITS CENTER FOR …, priority 2012, published 2015)
Numbering of substitutions follows the chain as printed. “Also recorded” adds a separate entry of the source.

What was measured:
A549 xenograft tumors = assay: Enhancement of irinotecan therapy in A549 xenograft tumors; assay type: in vivo, CB17-SCID/beige mice; conditions: 2 mg/kg i.v. one hour before irinotecan 37.5 mg/kg i.v.; days 15 and 25; N=5
Procedure: FIG. 5. Correlation of reduced DSG2 binding with the ability to open epithelial junctions. A) Transepithelial electrical resistance (TEER) measured on polarized colon cancer T84 cells. Cells were cultured in transwell chambers until the TEER was constant, i.e. tight junctions had formed. A total of 5 μg of dimeric Ad3 fiber knobs in PBS was then added for 1 hour to the apical chamber. TEER was measured at the indicated time points. N=6. For time points 1.5 and 4 hours the difference between JO-1 vs D261N and N186D was significant (p<0.01). The arrows indicate the addition and removal of Ad3 fiber knobs. B) Enhancement of irinotecan therapy. A total of 4×10^6 A549 cells were injected subcutaneously into CB17-SCID/beige mice. Once the tumor reached a volume of ˜100 mm^3 (day 15 after implantation), the mice were injected intravenously with 2 mg/kg JO-1, E299V, N186D, or PBS, followed by an intravenous injection of irinotecan (37.5 mg/kg) one hour later. The treatment was repeated on day 25. N=5. […] The difference between “irinotecan” vs “JO-1+irinotecan” was significant (p<0.01) from day 20 on.
(§1) FIG. 10. Combination of affinity-enhanced JO-1 versions with chemotherapy. A) Enhancement of irinotecan (I) therapy. The experimental setting was the same as in FIG. 5B. […] N=5. […] Mammary fat pad tumors were established from primary ovarian cancer ovc316 cells. Treatment was started when tumors reached a volume of 100 mm^3 Mice were injected intravenously with 2 mg/kg JO-1 or with 0.5 mg/kg JO-4, followed by an intravenous injection of PEGylated liposomal doxorubicin (PLD) (1 mg/kg) one hour later. Treatment was repeated weekly. […] A total of 4×10^6 TNBC MDA-MB-231 cells were injected into the mammary fat pad of CB17 SCID-beige mice. JO-4 (2 mg/kg) was intravenously injected 1 hour before the application of cetuximab (C) (10 mg/kg, i.p.) and nab-paclitaxel (nab-P) (5 mg/kg, i.v). Treatment was given weekly. N=10 P<0.01 at day 25 for nab-P+C vs JO-4+nab-P+C.
A549, MDA-MB-231, and ovc316 xenograft tumors were established by injection of the corresponding tumor cells into the mammary fat pad (1:1 with Matrigel) of CB17 mice. TC1-DSG2 tumors were established by subcutaneous injection of TC1-DSG2 cells into DSG2 transgenic mice. JO-0, JO-1, JO-2, or JO-4 were intravenously injected one hour before the application of chemotherapeutic drugs: Irinotecan/Camptosar™ (Pfizer Inc., Groton, Conn.), PEGylated liposomal doxorubicin/Lipodox™ (Sun Pharmaceuticals IN, India), cetuximab/Erbitux™ (ImClone, Somerville, N.J.), nanoparticle albumin conjugated paclitaxel/Abraxane™ (Abraxis Biosciences, Summit N.J.). Tumor volumes were measured three times a week. Each treatment group consisted of a minimum of 5 mice.

[1] = system: MDA-MB-231 orthotopic TNBC tumors; assay: Enhancement of nab-paclitaxel/cetuximab therapy in triple negative breast cancer model; assay type: in vivo, CB17 SCID-beige mice; conditions: 2 mg/kg i.v. 1 hour before cetuximab 10 mg/kg i.p. and nab-paclitaxel 5 mg/kg i.v., weekly; N=10
Procedure: as §1
A549, MDA-MB-231, and ovc316 xenograft tumors were established by injection of the corresponding tumor cells into the mammary fat pad (1:1 with Matrigel) of CB17 mice. TC1-DSG2 tumors were established by subcutaneous injection of TC1-DSG2 cells into DSG2 transgenic mice. […] Tumor volumes were measured three times a week. […]

B1: JO-1: recombinant protein with the Ad3 fiber knob and a domain for self-dimerization of trimeric knobs (SEQ ID NO:27) (protein)
chain: MKVSALKEKVSALKEKVSALKEKVSALKEKVSALKEGSGGGSGGGSGGGSNSIALKNNTLWTGPKPEANCIIEYGKQNPDSKLTLILVKNGGIVNGYVTLMGASDYVNTLFKNKNVSINVELYFDATGHILPDSSSLKTDLELKYKQTADFSARGFMPSTTAYPFVLPNAGTHNENYIFGQCYYKASDGALFPLEVTVMLNKRLPDSRTSYVMTFLWSLNAGLAPETTQATLITSPFTFSYIREDD
Enhancement of irinotecan therapy (A549 xenograft tumors): enhanced irinotecan therapy; also recorded: significant

B2: JO-4 (protein)
chain: B1 chain with Y177F
Enhancement of nab-paclitaxel/cetuximab therapy [1]: significantly increased nab-paclitaxel/cetuximab therapy; also recorded: enhances therapy | Enhancement of irinotecan therapy (A549 xenograft tumors): increased irinotecan therapy significantly more than JO-1; also recorded: significantly more efficient than JO-2; also recorded: significant from day 20 on
